The assay has as its target T1, recombinant 6His-Sp17 protein (human, UniProt Q15506 1-151, limits assumed).
T1 construct: The species is not restated for this recombinant protein; not shown: 6His tag
T1 sequence (looked up): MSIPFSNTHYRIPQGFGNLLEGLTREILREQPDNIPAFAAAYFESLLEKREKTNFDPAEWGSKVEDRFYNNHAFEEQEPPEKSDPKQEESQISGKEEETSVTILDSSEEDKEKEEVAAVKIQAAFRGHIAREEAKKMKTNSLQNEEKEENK
In words: SPR (Biacore T200), 6His-Sp17 at 6.25-300 nM as analyte. The text has this:
The lines correspond, from highest to lowest, to fitted cycles for 300 nanomolar, 100 nanomolar, 50 nanomolar, 25 nanomolar, 12.5 nanomolar, and 6.25 nanomolar concentrations of 6His-Sp17.
The nucleotide sequences encoding the VH and VL regions of Example 1 were cloned into a mouse IgG2a heavy chain gene and a mouse kappa light chain gene, respectively, and expressed in CHO—S cells to produce a mouse-human chimeric antibody, which was named chAB2. Successful generation of the antibody was confirmed by SDS-PAGE and western blotting using anti-mouse heavy and light chain antibodies and recombinant Sp17 protein (FIGS. 2 & 3). The chAB2 antibody was reactive to mouse surface Sp17 protein expressed on the mouse ovarian cancer cell line ID8 (FIG. 4).

B1: mouse-human chimeric anti-Sp17 IgG2a/kappa monoclonal antibody chAB2 (antibody, V domains shown)
VH: QVQLQQSGAEVKKPGSSVKVSCKASGGTFSSYAISWVRQAPGQGLEWMGRIIPILGIANYAQKFQGRVTITADKSTSTAYMELSSLRSEDTAVYYCARPSEEVVAAYGAFDIWGQGTTVTVSS
VL: EIVLTQSPLSLPVRPGEPASISCRASQSLLRSDGFNYLDWYLQKPGQSPQLLVYLGSNRASGVPDRFSGSGSGTDFTLKISRVEAEDVGVYYCMQAVQTPYIFGQGTKLEIK
notes: also called anti-Sp17 antibody chAB2; chimeric monoclonal antibody (chAB2); not shown: mouse IgG2a heavy chain constant region; mouse kappa light chain constant region
In the case of B1, the Kd was determined as 2.07 nM, the koff came to 0.00013 s⁻¹ and the kon came to 62600 M⁻¹ s⁻¹.

The values above are taken from US20250127942A1 (MEDICOVESTOR, published 2025).
